Test results from publication PMC3043165 (2011).
Where no end group is shown, it is not given here.

T1: integrin αvβ3 (Homo sapiens, UniProt P06756)
T1 chain 1: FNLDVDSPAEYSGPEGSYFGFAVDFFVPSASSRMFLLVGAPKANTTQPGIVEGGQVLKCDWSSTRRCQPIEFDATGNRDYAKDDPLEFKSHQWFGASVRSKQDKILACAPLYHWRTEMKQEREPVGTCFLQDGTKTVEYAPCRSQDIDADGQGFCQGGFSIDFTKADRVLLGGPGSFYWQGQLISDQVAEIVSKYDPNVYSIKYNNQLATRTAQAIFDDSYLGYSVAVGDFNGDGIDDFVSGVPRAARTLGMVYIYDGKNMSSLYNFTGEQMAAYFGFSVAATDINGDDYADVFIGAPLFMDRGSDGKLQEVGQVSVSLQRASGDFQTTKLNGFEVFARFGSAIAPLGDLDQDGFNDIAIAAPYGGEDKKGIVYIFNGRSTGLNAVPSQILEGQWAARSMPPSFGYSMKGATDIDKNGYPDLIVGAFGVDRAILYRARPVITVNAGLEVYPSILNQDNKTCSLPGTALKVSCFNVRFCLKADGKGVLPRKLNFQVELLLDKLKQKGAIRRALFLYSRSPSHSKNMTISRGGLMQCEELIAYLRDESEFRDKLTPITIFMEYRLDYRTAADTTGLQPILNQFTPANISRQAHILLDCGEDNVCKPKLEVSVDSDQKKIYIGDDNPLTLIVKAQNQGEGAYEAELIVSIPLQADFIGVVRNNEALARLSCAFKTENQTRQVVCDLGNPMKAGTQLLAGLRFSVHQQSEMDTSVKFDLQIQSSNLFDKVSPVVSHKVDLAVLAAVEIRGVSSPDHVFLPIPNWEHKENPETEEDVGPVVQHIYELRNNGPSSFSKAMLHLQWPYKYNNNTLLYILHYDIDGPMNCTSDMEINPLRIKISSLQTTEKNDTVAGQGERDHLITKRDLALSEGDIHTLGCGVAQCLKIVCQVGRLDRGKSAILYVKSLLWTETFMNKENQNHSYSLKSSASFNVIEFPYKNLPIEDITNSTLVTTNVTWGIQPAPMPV
T1 chain 2: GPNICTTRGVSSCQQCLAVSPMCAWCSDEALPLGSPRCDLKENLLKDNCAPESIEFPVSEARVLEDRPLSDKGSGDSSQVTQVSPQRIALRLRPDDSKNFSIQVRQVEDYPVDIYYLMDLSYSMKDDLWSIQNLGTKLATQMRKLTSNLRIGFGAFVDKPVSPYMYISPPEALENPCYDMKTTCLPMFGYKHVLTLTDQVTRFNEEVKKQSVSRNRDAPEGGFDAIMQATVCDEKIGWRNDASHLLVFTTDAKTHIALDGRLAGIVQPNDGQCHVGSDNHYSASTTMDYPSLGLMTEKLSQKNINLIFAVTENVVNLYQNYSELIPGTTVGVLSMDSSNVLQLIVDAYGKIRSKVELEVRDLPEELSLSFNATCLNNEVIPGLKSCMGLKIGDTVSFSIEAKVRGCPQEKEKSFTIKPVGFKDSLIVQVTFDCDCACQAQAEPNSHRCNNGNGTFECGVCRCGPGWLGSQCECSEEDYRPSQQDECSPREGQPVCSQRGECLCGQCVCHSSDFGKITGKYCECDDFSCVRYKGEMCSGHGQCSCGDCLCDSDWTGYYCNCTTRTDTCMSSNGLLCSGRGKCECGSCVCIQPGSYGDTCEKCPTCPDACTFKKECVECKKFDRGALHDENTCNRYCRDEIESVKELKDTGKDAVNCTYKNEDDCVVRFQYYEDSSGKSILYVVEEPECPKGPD

T2: integrin αvβ5 (Homo sapiens, UniProt P06756)
T2 chain 1: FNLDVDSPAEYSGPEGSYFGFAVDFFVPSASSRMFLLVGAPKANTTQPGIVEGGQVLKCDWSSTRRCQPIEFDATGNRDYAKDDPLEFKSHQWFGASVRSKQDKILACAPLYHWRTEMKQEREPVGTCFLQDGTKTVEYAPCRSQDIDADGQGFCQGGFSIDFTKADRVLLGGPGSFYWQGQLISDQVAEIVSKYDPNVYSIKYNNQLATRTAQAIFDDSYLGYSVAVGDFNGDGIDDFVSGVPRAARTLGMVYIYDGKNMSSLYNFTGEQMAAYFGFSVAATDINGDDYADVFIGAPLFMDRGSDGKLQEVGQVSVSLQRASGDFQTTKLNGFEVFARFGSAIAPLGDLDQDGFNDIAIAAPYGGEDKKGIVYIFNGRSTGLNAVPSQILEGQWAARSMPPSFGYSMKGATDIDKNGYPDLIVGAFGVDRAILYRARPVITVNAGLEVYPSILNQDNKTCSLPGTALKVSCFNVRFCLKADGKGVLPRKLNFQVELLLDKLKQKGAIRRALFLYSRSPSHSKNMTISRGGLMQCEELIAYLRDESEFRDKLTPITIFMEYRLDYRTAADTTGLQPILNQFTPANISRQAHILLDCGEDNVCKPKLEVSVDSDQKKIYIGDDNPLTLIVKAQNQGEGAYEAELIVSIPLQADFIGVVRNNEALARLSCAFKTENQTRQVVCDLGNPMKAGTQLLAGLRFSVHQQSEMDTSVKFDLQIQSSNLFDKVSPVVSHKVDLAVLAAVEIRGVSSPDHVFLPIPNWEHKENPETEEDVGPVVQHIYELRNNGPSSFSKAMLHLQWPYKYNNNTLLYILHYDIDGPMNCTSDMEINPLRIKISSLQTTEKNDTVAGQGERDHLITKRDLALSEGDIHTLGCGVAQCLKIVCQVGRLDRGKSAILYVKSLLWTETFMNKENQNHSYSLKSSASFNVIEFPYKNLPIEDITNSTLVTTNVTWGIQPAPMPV
T2 chain 2: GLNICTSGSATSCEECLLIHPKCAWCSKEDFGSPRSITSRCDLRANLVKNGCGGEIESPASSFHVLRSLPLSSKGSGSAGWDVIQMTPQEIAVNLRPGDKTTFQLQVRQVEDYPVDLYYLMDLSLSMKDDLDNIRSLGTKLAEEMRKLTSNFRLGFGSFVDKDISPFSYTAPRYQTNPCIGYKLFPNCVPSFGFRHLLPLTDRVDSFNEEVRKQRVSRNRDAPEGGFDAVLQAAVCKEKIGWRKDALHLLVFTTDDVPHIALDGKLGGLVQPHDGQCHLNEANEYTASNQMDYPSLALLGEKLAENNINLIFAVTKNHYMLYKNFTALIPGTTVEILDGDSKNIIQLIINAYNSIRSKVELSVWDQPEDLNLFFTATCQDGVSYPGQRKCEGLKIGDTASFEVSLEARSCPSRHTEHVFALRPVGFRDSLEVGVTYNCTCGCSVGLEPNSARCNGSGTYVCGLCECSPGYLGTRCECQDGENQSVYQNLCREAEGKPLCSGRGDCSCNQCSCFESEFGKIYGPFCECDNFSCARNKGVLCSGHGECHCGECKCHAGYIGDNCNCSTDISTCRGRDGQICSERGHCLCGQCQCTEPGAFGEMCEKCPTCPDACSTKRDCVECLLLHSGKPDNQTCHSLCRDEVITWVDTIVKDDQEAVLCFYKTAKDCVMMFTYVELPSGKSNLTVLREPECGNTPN


Key:
[1] = target: T1, integrin αvβ3; assay: competitive solid-phase binding assay with biotinylated vitronectin
[2] = target: T2, integrin αvβ5; assay: as above
[3] = target: integrin αIIbβ3 (Homo sapiens, UniProt P08514); assay: competitive solid-phase binding assay with biotinylated fibronectin

IC50 [1] | IC50 [2] | IC50 [3] | Binder
12.5 nM | – | – | GRGDS (not fully specified) [GRGDS-CNP 10% (14 peptides per CNP)]
5.21 nM | – | – | GRGDS (not fully specified) [GRGDS-CNP 20% (28 peptides per CNP)]
1.08 nM | – | – | GRGDS (not fully specified) [GRGDS-CNP 50% (70 peptides per CNP)]
78.5 nM | > 1000 nM | > 1000 nM | GRGDS (not fully specified) [GRGDS-CNP 5% (7 peptides per CNP)]
